Here are results for three molecules from US20250376519A1 (JIANGSU HENGRUI PHARMACEUTICALS, published 2025).

In test [1] the target is T1, cynomolgus monkey DLL3 on CHO-s cells (cynomolgus monkey, UniProt Q9NYJ7 27-618 (human entry)).
T1 construct: also called cynoDLL3/CHO-s; CynoDLL3/CHO-S
T1 chain: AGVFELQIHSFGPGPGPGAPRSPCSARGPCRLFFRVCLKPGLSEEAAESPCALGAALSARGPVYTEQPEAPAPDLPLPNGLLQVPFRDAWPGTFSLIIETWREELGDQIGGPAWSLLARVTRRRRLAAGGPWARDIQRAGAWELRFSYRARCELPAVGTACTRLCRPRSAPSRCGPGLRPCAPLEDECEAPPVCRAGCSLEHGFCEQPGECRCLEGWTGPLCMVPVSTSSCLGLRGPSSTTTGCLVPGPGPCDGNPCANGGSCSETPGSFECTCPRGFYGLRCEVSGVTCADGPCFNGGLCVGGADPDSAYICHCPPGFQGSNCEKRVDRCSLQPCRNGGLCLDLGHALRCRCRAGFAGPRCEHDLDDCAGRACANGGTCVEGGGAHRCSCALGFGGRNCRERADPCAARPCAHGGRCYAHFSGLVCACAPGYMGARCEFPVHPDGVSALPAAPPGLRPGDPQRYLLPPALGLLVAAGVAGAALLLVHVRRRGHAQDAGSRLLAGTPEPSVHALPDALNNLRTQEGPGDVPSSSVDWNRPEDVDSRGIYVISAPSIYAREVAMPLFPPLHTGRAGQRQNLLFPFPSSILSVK
Kind of test: flow cytometry, cynoDLL3/CHO-s cells. Here is the method: The plates were centrifuged at 300 g for 5 min, and the supernatant was removed. Different concentrations of test antibodies were added at 100 μL/well. The plates were incubated in the dark in a refrigerator at 4° C. for 1 h. After 3 centrifugal washes at 300 g, working concentrations of APC anti-human IgG Fc (BioLegend, 410712) or PE F(ab′)2-goat anti-human IgG (invitrogen, H10104) were added. The plates were incubated in the dark in a refrigerator at 4° C. for 40 min. After 3 centrifugal washes at 300 g, the geometric mean fluorescence intensity was measured on an Invitrogen flow cytometer, and the EC50 values for the binding of the antibodies to DLL3-expressing cells were calculated.

The target of test [2] is T2, hDLL3 (ECD)-strep twin, biotinylated (human, UniProt Q9NYJ7 27-492, biotinylated).
T2 construct: The entry carries a signal peptide (marked only by a dotted line); also called Biotinylated DLL3 antigen; human DLL3 protein
Description: ELISA, biotinylated antigen on streptavidin. Here is the method:
(§1) Streptavidin (abcam, ab136200, 1 μg/mL) was plated at 100 μL/well, and the plates were incubated overnight at 4° C. The plates were washed 3 times with 250 μL of PBST solution (PBS containing 0.1% Tween 20) per well. The plates were blocked with 250 μL of 5% milk per well at 37° C. for 2 h. The plates were washed 3 times with 250 μL of PBST solution per well. Biotinylated DLL3 antigen (1 μg/mL) (SEQ ID NO: 9) was added, and the plates were incubated at 37° C. for 1 h. The plates were washed 3 times with 250 μL of PBST solution per well. Antibodies (maximum concentration 400 nM, serially diluted 4-fold) were formulated, and incubation was performed at 37° C. for 1 h. The plates were washed 6 times with 250 μL of PBST solution per well. […] The plates were washed 6 times with 250 μL of PBST solution per well. TMB (KPL, 5120-0077) substrate solution was added at 100 μL/well, and color development was performed at room temperature for 5-10 min. 1 M H₂SO₄ was added at 100 μL/well to stop the color development, and microplate reader (Molecular Devices, VERSA max) readings at 450 nm were taken.

The target of test [3] is T3, CD3 on Jurkat cells (human).
T3 construct: whole, on cells; also called CD3-expressing Jurkat cells
Kind of test: flow cytometry, Jurkat cells.

For test [4], the target named is T4, DLL4 (ACRO, DL4-H5227) (human, UniProt Q9NR61 27-524).
T4 construct: Bought; also called human DLL4
Kind of test: ELISA, DLL4 coated at 1 µg/mL, detection with anti-human IgG (H+L)-HRP, OD450. Here is the method: as §1, with “DLL1 (ACRO, DL1-H52H8, 1” for “Streptavidin (abcam, ab136200, 1”, “μg/mL) and DLL4 (ACRO, DL4-H5227, 1 μg/mL) were” for “μg/mL) was”, “well. Test antibodies (maximum concentration 100 nM, serially diluted 4-fold) were” for “well. Biotinylated DLL3 antigen (1 μg/mL) (SEQ ID NO: 9) was”, “incubated” for “incubated at 37° C. for 1 h. The plates were washed 3 times with 250 μL of PBST solution per well. Antibodies (maximum concentration 400 nM, serially diluted 4-fold) were formulated, and incubation was performed”
In general terms: In an ELISA, binding on a coated surface is turned into a signal by an enzyme label.

The target in test [5] is T2, hDLL3 (ECD)-strep twin, biotinylated. Description: ELISA, biotinylated antigen on streptavidin, OD450. Here is the method:
as §1

In test [6] the target is T5, DLL1 (ACRO, DL1-H52H8) (human, UniProt O00548 18-540).
T5 construct: Bought; also called human DLL1
T5 sequence: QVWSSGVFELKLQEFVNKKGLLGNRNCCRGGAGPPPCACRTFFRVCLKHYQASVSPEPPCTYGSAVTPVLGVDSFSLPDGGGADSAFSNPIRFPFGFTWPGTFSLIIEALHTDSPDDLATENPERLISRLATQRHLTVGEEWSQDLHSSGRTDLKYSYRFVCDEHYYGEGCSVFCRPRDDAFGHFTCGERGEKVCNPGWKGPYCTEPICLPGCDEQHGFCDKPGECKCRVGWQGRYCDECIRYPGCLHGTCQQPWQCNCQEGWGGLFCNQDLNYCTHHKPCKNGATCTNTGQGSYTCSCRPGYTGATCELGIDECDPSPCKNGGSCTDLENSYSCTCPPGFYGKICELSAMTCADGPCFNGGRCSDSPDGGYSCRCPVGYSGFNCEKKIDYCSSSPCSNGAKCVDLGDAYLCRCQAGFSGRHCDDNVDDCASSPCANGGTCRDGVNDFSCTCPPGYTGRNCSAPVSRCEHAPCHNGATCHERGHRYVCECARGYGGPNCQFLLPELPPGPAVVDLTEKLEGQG
Description: ELISA, DLL1 coated at 1 µg/mL, detection with anti-human IgG (H+L)-HRP, OD450. Here is the method:
as §1, with “DLL1 (ACRO, DL1-H52H8, 1” for “Streptavidin (abcam, ab136200, 1”, “μg/mL) and DLL4 (ACRO, DL4-H5227, 1 μg/mL) were” for “μg/mL) was”, “well. Test antibodies (maximum concentration 100 nM, serially diluted 4-fold) were” for “well. Biotinylated DLL3 antigen (1 μg/mL) (SEQ ID NO: 9) was”, “incubated” for “incubated at 37° C. for 1 h. The plates were washed 3 times with 250 μL of PBST solution per well. Antibodies (maximum concentration 400 nM, serially diluted 4-fold) were formulated, and incubation was performed”

T3 sequence (P07766 23-207, chain 1 of 4): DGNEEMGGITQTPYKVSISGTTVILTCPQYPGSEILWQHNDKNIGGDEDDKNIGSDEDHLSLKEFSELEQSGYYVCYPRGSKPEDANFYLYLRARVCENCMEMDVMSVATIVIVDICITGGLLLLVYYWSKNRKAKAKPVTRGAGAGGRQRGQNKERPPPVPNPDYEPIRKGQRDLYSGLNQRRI
T3 sequence (P09693 23-182, chain 2 of 4, further chain): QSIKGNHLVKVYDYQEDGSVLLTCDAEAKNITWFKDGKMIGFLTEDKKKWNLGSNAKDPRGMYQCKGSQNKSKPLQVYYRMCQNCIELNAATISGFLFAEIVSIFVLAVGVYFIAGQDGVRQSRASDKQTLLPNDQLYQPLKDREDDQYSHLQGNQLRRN
T3 sequence (P04234 22-171, chain 3 of 4, further chain): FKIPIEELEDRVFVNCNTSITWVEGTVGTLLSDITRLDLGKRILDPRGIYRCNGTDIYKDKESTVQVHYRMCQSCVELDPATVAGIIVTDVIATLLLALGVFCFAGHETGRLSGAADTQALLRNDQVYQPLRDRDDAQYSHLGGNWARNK
T3 sequence (P20963 22-164, chain 4 of 4, further chain): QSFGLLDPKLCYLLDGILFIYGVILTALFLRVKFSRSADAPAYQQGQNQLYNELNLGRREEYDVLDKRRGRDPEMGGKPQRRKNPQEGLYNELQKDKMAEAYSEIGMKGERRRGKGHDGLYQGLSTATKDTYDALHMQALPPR
T4 sequence (Q9NR61 27-524 limits assumed): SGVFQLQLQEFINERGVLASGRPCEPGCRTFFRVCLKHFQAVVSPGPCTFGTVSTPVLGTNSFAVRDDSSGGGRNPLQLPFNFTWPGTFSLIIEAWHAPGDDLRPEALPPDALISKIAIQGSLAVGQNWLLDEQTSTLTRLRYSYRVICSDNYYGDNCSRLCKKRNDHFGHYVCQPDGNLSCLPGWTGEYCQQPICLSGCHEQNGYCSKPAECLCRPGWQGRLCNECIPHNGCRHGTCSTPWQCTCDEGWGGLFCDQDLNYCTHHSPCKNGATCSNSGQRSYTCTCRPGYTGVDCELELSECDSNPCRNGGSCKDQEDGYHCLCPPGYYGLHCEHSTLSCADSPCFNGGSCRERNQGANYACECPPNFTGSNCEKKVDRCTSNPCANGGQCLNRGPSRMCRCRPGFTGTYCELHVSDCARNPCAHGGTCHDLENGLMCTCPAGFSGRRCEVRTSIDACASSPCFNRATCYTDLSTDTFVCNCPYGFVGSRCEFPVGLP

B1: hu110-S107E-hot Ig (bispecific antibody)
light 1: NIVMTQSPKSLAVSLGERATINCKASENVGIFVSWYQQKPGQSPKLLIYGASNRYTGVPDRFSGSGSATDFTLTISSLQAEDVADYYCGQSHSYPLTFGQGTKLEIKGGGGSSGAPRFLTRPKASVVSVGKDATLSCQIVGNPFPQVSWEKDKQPVTAGVRFRLAQDGDLYRLKILDLQLSDSGQYVCRARNAHGEAFACLGLQVDAEA
heavy 1: EVQLVQSGAEVKKPGASVKVSCKTSGYTFTDYYMNWVRQAPGQSLEWMGIINPYQGGTSYTQKFKGRVTITVDKSASTAYMELSSLRSEDTAVYYCARHFYDSSYLTYSTMDYWGQGTTVTVSSGGGGSGIPPKIECLPIDISIDEGKVLTVASAFTGEPTPEVTWSTGGRKIHSQEQGRFHIENTDDSTTLTIKDVQKQDGGLYTLTLRNEFGSDSATVNIHIRSIDKTHTCPPCPAPEAAGGPSVFLFPPKPKDTLMISRTPEVTCVVVDVSHEDPEVKFNWYVDGVEVHNAKTKPREEQYNSTYRVVSVLTVLHQDWLNGKEYKCKVSNKALPAPIEKTISKAKGQPREPQVCTLPPSREEMTKNQVSLSCAVKGFYPSDIAVEWESNGQPENNYKTTPPVLDSDGSFFLVSKLTVDKSRWQQGNVFSCSVMHEALHNHYTQKSLSLSPGK
heavy 2: not shown
light 2: not shown
notes: Format 1 (Hot-Ig, Titin/Obscurin-replaced DLL3 Fab), DLL3 x CD3
In general, EC50 refers to the concentration giving half of the maximal effect. With B1, the 50% effective concentration (EC50) in test [1] was 5.01 nM; in test [2] it was 0.11 nM; in test [3], 7.74 nM. Besides, the binding result in test [4] is “no binding (tested: log[antibody, nM] 2 (100 nM))”; in test [6], “no binding”. In test [5], the Emax was found to be 0.45.

B2: hu110-I2C-hot Ig (bispecific antibody)
light 1: B1 light 1
heavy 1: B1 heavy 1
heavy 2: not shown
light 2: not shown
notes: as for B1
In the case of B2, the concentration giving a half-maximal response (EC50) in test [1] is 4.92 nM; in test [2], 0.08 nM; in test [3], 3.27 nM. Further, the binding result was “no binding (tested: log[antibody, nM] 2 (100 nM))” in test [4] and “no binding” in test [6]. The Emax in test [5] worked out at 0.48.

B3: hu110-I2C-Y body (bispecific antibody)
light: NIVMTQSPKSLAVSLGERATINCKASENVGIFVSWYQQKPGQSPKLLIYGASNRYTGVPDRFSGSGSATDFTLTISSLQAEDVADYYCGQSHSYPLTFGQGTKLEIKRTVAAPSVFIFPPSDEQLKSGTASVVCLLNNFYPREAKVQWKVDNALQSGNSQESVTEQDSKDSTYSLSSTLTLSKADYEKHKVYACEVTHQGLSSPVTKSFNRGEC
heavy: EVQLVQSGAEVKKPGASVKVSCKTSGYTFTDYYMNWVRQAPGQSLEWMGIINPYQGGTSYTQKFKGRVTITVDKSASTAYMELSSLRSEDTAVYYCARHFYDSSYLTYSTMDYWGQGTTVTVSSASTKGPSVFPLAPSSKSTSGGTAALGCLVKDYFPEPVTVSWNSGALTSGVHTFPAVLQSSGLYSLSSVVTVPSSSLGTQTYICNVNHKPSNTKVDKKVEPKSCDKTHTCPPCPAPEAAGGPSVFLFPPKPKDTLMISRTPEVTCVVVDVSHEDPEVKFNWYVDGVEVHNAKTKPREEQYNSTYRVVSVLTVLHQDWLNGKEYKCKVSNKALPAPIEKTISKAKGQPREPQVCTLPPSREEMTKNQVSLSCAVKGFYPSDIAVEWESNGQPENNYKTTPPVLDSDGSFFLVSKLTVDKSRWQQGNVFSCSVMHEALHNHYTQKSLSLSPGK
chain: not shown
notes: Format 2 (Y body: DLL3 Fab-Fc hole + CD3 scFv-Fc knob)
B3: the half-maximal effective concentration (EC50) in test [1] was determined as 4.92 nM; in test [2], 0.07 nM; in test [3] it was 3.83 nM. In addition, the binding result in test [4] is “no binding (tested: log[antibody, nM] 2 (100 nM))”; in test [6] it was “no binding”. For the same molecule, the Emax in test [5] was 0.48.
